Source: patent US20120321557A1 (FORERUNNER PHARMA RESEARCH, published 2012)

How the values were obtained:
human ICAM1 = target: T1, human ICAM1 (human, UniProt P05362 28-532); assay: FACS on ICAM1-expressing BaF3 transfectant, anti-mouse IgG-FITC detection
T1 construct: also called ICAM1/BaF3 (cells that carry it)
Procedure: (§1) Next, using these cell lines thus established, the cross-reactivity of IB23 with the ICAM family was analyzed. Each 10 μg/ml of the IB23 antibody, an anti-human ICAM1 antibody (R&D Systems, Inc., #BBA3), and an anti-human ICAM5 antibody (R&D Systems, Inc., #MAB1950) were reacted with ICAM1/BaF3 and ICAM5/BaF3. Then, after staining with an anti-mouse IgG-FITC antibody (Beckman Coulter #IM0819), the binding of each antibody was analyzed by FACS (Becton, Dickinson and Company).

human ICAM5 = target: T2, human ICAM5 (human, UniProt Q9UMF0 32-924); assay: FACS on ICAM5-expressing BaF3 transfectant, anti-mouse IgG-FITC detection
T2 construct: also called ICAM5/BaF3 (cells that carry it)
T2 sequence: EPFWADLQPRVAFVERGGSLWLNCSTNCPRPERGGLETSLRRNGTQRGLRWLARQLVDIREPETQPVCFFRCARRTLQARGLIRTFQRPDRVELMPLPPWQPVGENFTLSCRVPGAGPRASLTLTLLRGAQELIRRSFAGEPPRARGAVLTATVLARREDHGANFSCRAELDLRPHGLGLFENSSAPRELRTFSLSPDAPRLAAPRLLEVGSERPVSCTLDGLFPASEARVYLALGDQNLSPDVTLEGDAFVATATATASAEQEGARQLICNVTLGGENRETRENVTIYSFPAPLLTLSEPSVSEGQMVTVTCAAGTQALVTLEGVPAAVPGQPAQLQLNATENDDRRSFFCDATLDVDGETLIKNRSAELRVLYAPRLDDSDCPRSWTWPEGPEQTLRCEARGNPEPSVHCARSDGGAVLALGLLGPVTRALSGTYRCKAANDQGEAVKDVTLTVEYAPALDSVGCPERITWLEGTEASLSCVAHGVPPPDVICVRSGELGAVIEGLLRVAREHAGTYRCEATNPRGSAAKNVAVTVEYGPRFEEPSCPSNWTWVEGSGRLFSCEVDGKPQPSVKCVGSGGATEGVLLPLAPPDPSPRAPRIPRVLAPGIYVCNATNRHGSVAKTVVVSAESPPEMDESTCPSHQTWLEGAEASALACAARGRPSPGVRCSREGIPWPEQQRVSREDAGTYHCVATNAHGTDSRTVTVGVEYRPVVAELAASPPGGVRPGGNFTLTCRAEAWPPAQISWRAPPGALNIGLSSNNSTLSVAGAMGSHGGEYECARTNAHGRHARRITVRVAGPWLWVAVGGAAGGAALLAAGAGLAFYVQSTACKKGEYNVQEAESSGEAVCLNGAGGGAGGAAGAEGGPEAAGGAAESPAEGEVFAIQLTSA
Procedure: as §1

T1 sequence (P05362 28-532 K469E limits assumed): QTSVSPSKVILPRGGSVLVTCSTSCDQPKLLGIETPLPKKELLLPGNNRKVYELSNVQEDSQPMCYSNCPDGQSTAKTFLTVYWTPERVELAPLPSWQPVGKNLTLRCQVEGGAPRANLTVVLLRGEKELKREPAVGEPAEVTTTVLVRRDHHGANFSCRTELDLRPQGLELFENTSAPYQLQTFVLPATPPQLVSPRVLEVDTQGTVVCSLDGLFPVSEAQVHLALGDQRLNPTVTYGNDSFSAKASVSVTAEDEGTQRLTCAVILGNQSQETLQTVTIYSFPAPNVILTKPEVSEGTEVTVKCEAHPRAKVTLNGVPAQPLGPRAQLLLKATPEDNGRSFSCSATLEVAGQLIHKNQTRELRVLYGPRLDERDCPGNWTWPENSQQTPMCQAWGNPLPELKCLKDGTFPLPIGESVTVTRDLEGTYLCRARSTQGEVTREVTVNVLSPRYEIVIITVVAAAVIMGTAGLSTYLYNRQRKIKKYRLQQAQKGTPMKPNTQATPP

binding result (human ICAM1): no binding (tested: 10 µg/ml) | binding result (human ICAM5): no binding (tested: 10 µg/ml)
B1: mouse monoclonal antibody IB23 (antibody, V domains shown)
VH: QVQLQQSGAELAKPGASVKMSCKASGYTFTTYWMHWVKQRPGQGLEWIGYINPNTDYTEYNQKFKDKATLTADKSSSTAFMQLSSLTSEDSAVYYCASSRDAYHGTYWGQGTLVTVSA
VL: DIVMTQSPATLSVTPGDRVSLSCRASQSISDYLHWYQQKSHESPRLLIRYASQSISGIPSRFSGSGSGSDFTLSINNVEPEDVGVYYCQNGHNFPLTFGAGTKLELK
notes: Mouse hybridoma antibody purified on Protein G and detected with anti-mouse IgG-FITC; also called IB23 antibody; mouse IB23 antibody
